Columns and labels:
[1] = tested on: iron loaded prion or abeta40 templates; assay type: binding
[2] = tested on: iron loaded abeta42 aggregates mixed with CE proteins; assay: Proteolysis of amyloid plaque complexes assembled on iron loaded abeta42 aggregates; assay type: biochemical; conditions: 20 ng protease, 37° C., 1 hr
Description: This example illustrates the use of the invention to evaluate the proteolytic degradation of the amyloid complexes. For example, iron loaded abeta42 aggregates are mixed with CE proteins, and the resulting template complexes are treated with five different serine proteases. More specifically, nine independent reactions are carried out with each containing 5.0 μg of the iron-loaded aggregates of abeta42 and 6.0 μg of the CE proteins. After incubation and washing, the complexes are suspended in 50 μl of PBS. The nine complexes are sub-divided into two groups, with six individual complexes comprising Group I and three complexes comprising Group II. In order to interrogate the role of the plasminogen (PLG) activation system, which is implicated in the catabolism of amyloid peptides as well as the pathobiology of amyloid diseases (Melchor J P et al, 2003; Van Nostrand W E et al, 1999; Kranenburg O, 2005), the Group II complexes are subjected to another cycle of binding with both PLG (0.5 μg) and BSA (0.5 μg) proteins. After binding and washing, the PLG and BSA bound plaques complexes are suspended in 50 μl of PBS.
For proteolysis analysis, five of the six Group I template complexes are incubated with 20 ng of each protease (plasnin, chymotrypsin, trypsin, proteinase K and urokinase). The remaining complex is used as a control without protease treatment. […]

[3] = target: iron-loaded abeta42 templates (Homo sapiens, UniProt P05067); assay: Binding of proteins to iron-loaded abeta42 templates; conditions: SDS-PAGE
Description: FIG. 46 illustrates an example involving the identification of proteins that bind to iron-loaded abeta42 templates. The iron-loaded abeta42 templates are combined with known and unknown cell extracts (CE) and subjected to CPA, as described herein. To determine which proteins successfully bind the templates, the final template complexes are suspended in denaturing sample buffer, boiled, and loaded into SDS-PAGE gel. The gels are then stained with coomassie blue or silver stain in order to visualize the binding proteins. […] In the negative control, no significant binding is observed when the proteins are incubated in the absence of the templates.
In experiments such as these, known and unknown cell extract proteins that are used for the complex formation with the aggregates are diluted in PBS to a 1 mg/ml concentration and stored at −70° C. as 50 μl aliquots. These samples are thawed on ice and centrifuged (13000 rpm, 15 min, 4° C.) to remove any precipitation. The supernatant containing soluble proteins is used to form complexes with the aggregates. Various proteins are screened against the iron loaded abeta42 aggregates for examining their binding. […] The proteins in the gels are detected using coomassie blue or silver stain (Owl silver stain, Pierce, Ill., USA). […]

Sequence of iron-loaded abeta42 templates (P05067 672-713 limits assumed): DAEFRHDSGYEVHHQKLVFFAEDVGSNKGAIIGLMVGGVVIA

B1: STI: soybean trypsin inhibitor (protein, UniProt P01070 25-205, looked up)
Trypsin inhibitor A: DFVLDNEGNPLENGGTYYILSDITAFGGIRAAPTGNERCPLTVVQSRNELDKGIGTIISSPYRIRFIAEGHPLSLKFDSFAVIMLCVGIPTEWSVVEDLPEGPAVKIGENKDAMDGWFRLERVSDDEFNNYKLVFCPQQAEDDKCGDIGISIDHDDGTRRLVVSKNKPLVVQFQKLDKESL
- Binding with iron loaded prion or abeta40 templates [1]: no detectable binding

B2: proteinase K: serine protease (protein, UniProt P06873 106-384, looked up)
Proteinase K: AAQTNAPWGLARISSTSPGTSTYYYDESAGQGSCVYVIDTGIEASHPEFEGRAQMVKTYYYSSRDGNGHGTHCAGTVGSRTYGVAKKTQLFGVKVLDDNGSGQYSTIIAGMDFVASDKNNRNCPKGVVASLSLGGGYSSSVNSAAARLQSSGVMVAVAAGNNNADARNYSPASEPSVCTVGASDRYDRRSSFSNYGSVLDIFGPGTSILSTWIGGSTRSISGTSMATPHVAGLAAYLMTLGKTTAASACRYIADTANKGDLSNIPFGTVNLLAYNNYQA
- Degradation of proteins bound to the aggregates [2]: degraded

B3: plasmin: serine protease (protein, UniProt P00747 20-580; P00747 581-810, looked up)
Plasmin heavy chain A: EPLDDYVNTQGASLFSVTKKQLGAGSIEECAAKCEEDEEFTCRAFQYHSKEQQCVIMAENRKSSIIIRMRDVVLFEKKVYLSECKTGNGKNYRGTMSKTKNGITCQKWSSTSPHRPRFSPATHPSEGLEENYCRNPDNDPQGPWCYTTDPEKRYDYCDILECEEECMHCSGENYDGKISKTMSGLECQAWDSQSPHAHGYIPSKFPNKNLKKNYCRNPDRELRPWCFTTDPNKRWELCDIPRCTTPPPSSGPTYQCLKGTGENYRGNVAVTVSGHTCQHWSAQTPHTHNRTPENFPCKNLDENYCRNPDGKRAPWCHTTNSQVRWEYCKIPSCDSSPVSTEQLAPTAPPELTPVVQDCYHGDGQSYRGTSSTTTTGKKCQSWSSMTPHRHQKTPENYPNAGLTMNYCRNPDADKGPWCFTTDPSVRWEYCNLKKCSGTEASVVAPPPVVLLPDVETPSEEDCMFGNGKGYRGKRATTVTGTPCQDWAAQEPHRHSIFTPETNPRAGLEKNYCRNPDGDVGGPWCYTTNPRKLYDYCDVPQCAAPSFDCGKPQVEPKKCPGR
Plasmin light chain B: VVGGCVAHPHSWPWQVSLRTRFGMHFCGGTLISPEWVLTAAHCLEKSPRPSSYKVILGAHQEVNLEPHVQEIEVSRLFLEPTRKDIALLKLSSPAVITDKVIPACLPSPNYVVADRTECFITGWGETQGTFGAGLLKEAQLPVIENKVCNRYEFLNGRVQSTELCAGHLAGGTDSCQGDSGGPLVCFEKDKYILQGVTSWGLGCARPNKPGVYVRVSRFVTWIEGVMRNN
modifications: Plasmin
notes: serine protease
- Degradation of proteins bound to the aggregates [2]: degraded

B4: chicken ovalbumin: chicken ovalbumin (protein, UniProt P01012 2-386, looked up)
Ovalbumin: GSIGAASMEFCFDVFKELKVHHANENIFYCPIAIMSALAMVYLGAKDSTRTQINKVVRFDKLPGFGDSIEAQCGTSVNVHSSLRDILNQITKPNDVYSFSLASRLYAEERYPILPEYLQCVKELYRGGLEPINFQTAADQARELINSWVESQTNGIIRNVLQPSSVDSQTAMVLVNAIVFKGLWEKAFKDEDTQAMPFRVTEQESKPVQMMYQIGLFRVASMASEKMKILELPFASGTMSMLVLLPDEVSGLEQLESIINFEKLTEWTSSNVMEERKIKVYLPRMKMEEKYNLTSVLMAMGITDVFSSSANLSGISSAESLKISQAVHAAHAEINEAGREVVGSAEAGVDAASVSEEFRADHPFLFCIKHIATNAVLFFGRCVSP
- Binding with iron-loaded abeta42 templates [3]: no detectable binding
